Columns and labels:
[1] = target: T1, Human MUC1 (full length), on cells (human, UniProt P15941 24-1255); assay: flow cytometry on live ZR-75 cells (native MUC1)
T1 construct: UniProtKB P15941 printed; the cell line is named under assay; also called native MUC1; HEK293/human MUC1

[2] = target: T1, Human MUC1 (full length), on cells; assay: cell-based or functional assay

T1 sequence (P15941 24-1255 limits assumed): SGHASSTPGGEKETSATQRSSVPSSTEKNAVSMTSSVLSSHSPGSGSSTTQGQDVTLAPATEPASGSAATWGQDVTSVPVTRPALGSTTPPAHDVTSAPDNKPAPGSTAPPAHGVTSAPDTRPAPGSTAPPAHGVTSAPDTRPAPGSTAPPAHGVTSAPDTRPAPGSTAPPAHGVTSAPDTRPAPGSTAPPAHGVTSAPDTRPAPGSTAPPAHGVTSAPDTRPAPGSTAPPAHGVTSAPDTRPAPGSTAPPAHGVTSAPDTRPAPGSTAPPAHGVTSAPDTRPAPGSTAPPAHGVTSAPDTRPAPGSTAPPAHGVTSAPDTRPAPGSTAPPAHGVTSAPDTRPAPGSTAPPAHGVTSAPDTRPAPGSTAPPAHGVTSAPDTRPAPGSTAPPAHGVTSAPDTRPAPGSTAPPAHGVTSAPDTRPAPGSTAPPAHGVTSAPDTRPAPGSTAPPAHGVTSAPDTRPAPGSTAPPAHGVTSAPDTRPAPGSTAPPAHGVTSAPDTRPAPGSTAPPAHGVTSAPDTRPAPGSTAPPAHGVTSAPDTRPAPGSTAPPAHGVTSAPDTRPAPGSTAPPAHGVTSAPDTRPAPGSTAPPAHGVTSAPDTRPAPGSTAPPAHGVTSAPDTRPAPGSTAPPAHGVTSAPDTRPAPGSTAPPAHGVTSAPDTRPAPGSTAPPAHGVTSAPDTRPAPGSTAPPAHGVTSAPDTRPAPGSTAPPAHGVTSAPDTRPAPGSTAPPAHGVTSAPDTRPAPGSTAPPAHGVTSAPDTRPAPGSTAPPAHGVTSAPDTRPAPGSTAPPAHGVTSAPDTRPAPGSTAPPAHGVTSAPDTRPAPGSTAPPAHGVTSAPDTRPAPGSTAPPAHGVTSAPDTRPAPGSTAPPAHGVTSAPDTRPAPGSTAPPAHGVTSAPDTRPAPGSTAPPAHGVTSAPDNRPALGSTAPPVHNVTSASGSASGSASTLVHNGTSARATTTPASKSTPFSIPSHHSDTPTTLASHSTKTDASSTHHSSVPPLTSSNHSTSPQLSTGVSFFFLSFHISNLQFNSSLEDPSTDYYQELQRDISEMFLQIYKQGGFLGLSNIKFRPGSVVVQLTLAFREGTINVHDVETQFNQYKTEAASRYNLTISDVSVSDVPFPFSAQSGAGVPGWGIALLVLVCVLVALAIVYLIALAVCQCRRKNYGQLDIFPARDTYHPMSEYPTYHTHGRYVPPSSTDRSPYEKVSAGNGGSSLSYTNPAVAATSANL

Binder | EC50 [1] | Cell lysis activity Emax, T-47D/nanoluc in human whole blood [2] | Cell lysis activity EC50, T-47D/nanoluc in human whole blood [2]
huBG219P-Bz0 (antibody, IgG1, V domains shown, Humanized) VH: EVQLLESGGGLVQPGGSLRLSCAASGFTFNDYIMSWVRQAPGKGLEWVATVSSGGDNTYYPDSVKGRFTISRDNSKNTLYLQMNSLRAEDTAVYYCTRYGGLGAMDYWGQGTLVTVSS VL: DIQMTQSPSSLSASVGERVTITCRASGNIHNYLTWYQQKPGKSPKLLVYNAKTLADGVPSRFSGSGSGPDYTLTISSLQPEDFATYYCQHFWSVPYTFGQGTKLEIK | 20.9 nM | – | –
HuVH-HMFG1-AF (antibody, IgG1, V domains shown, afucosylated Fc glycan (-AF)) VH: QVQLVQSGAEVKKPGASVKVSCKASGYTFSAYWIEWVRQAPGKGLEWVGEILPGSNNSRYNEKFKGRVTVTRDTSTNTAYMELSSLRSEDTAVYYCARSYDFAWFAYWGQGTLVTVSS VL: DIQMTQSPSSLSASVGDRVTITCKSSQSLLYSSNQKIYLAWYQQKPGKAPKLLIYWASTRESGVPSRFSGSGSGTDFTFTISSLQPEDIATYYCQQYYRYPRTFGQGTKVEIK | – | 3.59% | –
Gatipotuzumab-AF (antibody, IgG1, V domains shown, afucosylated Fc glycan (-AF)) VH: EVQLVESGGGLVQPGGSMRLSCVASGFPFSNYWMNWVRQAPGKGLEWVGEIRLKSNNYTTHYAESVKGRFTISRDDSKNSLYLQMNSLKTEDTAVYYCTRHYYFDYWGQGTLVTVSS VL: DIVMTQSPLSNPVTPGEPASISCRSSKSLLHSNGITYFFWYLQKPGQSPQLLIYQMSNLASGVPDRFSGSGSGTDFTLRISRVEAEDVGVYYCAQNLELPPTFGQGTKVEIK | – | 10.2% | 2.46 nM
Clivatuzumab-AF (antibody, IgG1, V domains shown, afucosylated Fc glycan (-AF)) VH: QVQLQQSGAEVKKPGASVKVSCEASGYTFPSYVLHWVKQAPGQGLEWIGYINPYNDGTQYNEKFKGKATLTRDTSINTAYMELSRLRSDDTAVYYCARGFGGSYGFAYWGQGTLVTVSS VL: DIQLTQSPSSLSASVGDRVTMTCSASSSVSSSYLYWYQQKPGKAPKLWIYSTSNLASGVPARFSGSGSGTDFTLTISSLQPEDSASYFCHQWNRYPYTFGGGTRLEIK | – | 2.31% | –
MUC1 3D1-hFc-AF (antibody, IgG1, V domains shown, afucosylated Fc glycan (-AF)) VH: EVQLVQSGAEVKKPGESLKISCKGSGYAFSNFWMNWVRQMPGKGLEWMGQIYPGDGDTNYNGKFKGQVTISADKSISTAYLQWSSLKASDTAMYYCARSYYRSAWFAYWGQGTLVTVSL VL: EIVLTQSPDFQSVTPKEKVTITCRASQSIGTSIHWYQQKPDQSPKLLIKYASESISGVPSRFSGSGSGTDFTLTINSLEAEDAATYYCQQSNNWPLTFGQGTKVEIK | – | 10.6% | 8.85 nM
